The supplement of paper PMC10567573

B1: FCHSD1 (parent)
chain: LEAAEVILEHAHRGEQTTSQVSWE

Variants of: B1
Assay: protein stability index of a GFP-peptide fusion (GPS, HEK-293T) (PSI 1-6); higher = more stable
Conditions: c terminus: a fixed tail appended
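Note: lentivirally expressed fusions sorted by FACS into six bins by GFP to DsRed ratio, PSI derived from sequencing read proportions per bin multiplied by bin number.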

Protein stability index, by site and new letter:
W23: M 4.23, L 5.12, D 5.55, S 5.24, Q 5.54, R 4.58, K 4.41, H 5.61, A 5.32, I 4.2, E 5.79, P 5.29, F 4.64, T 4.9, C 3.4, N 3.89, Y 4.71
E24: H 4, P 4.3, S 4.46, V 3.07, G 2.57, Q 3.95, L 2.95, C 3.88, F 2.65, Y 3.99, W 2.66, R 3.47, K 4.64, A 3.2, M 2.72, N 3.92, I 2.01
S22: K 4.93, G 4.89, N 4.47, C 3.85, Y 4.63, T 3.8, A 4.57, P 5.17, F 3.71, Q 4.98, L 3.79, I 4.41, D 4.77, R 3.74, E 4.68, M 4.54, V 5.24
V21: S 5.51, T 4.64, Y 3.9
